Earlier results on 1 substance are cited in patent US9034821B2, “Pharmaceutical composition” (priority 2011, dated 2015).

Read-outs that look alike come from different tables or passages of the source.

On to “Cys-Tyr-Ile-Gln-Asn-Cys-Pro-Leu-Gly-NH2 [oxytocin]”, for which the “pH of best stability” value (aqueous solutions of different pH) is 4.5. Besides, the degradation of oxytocin entry by setting is: (buffered aqueous solution of pH 3, stored at 70° C. for 7 days) “about 15 % (area %)”; (buffered aqueous solution, pH 4, stored at 70° C. for 7 days) “approximately 35 % (area %)”.
